Literature values as cited in publication PMC6538672.
pKd: −log10 of the molar value.

Biological target: RMI1:RMI2 (Homo sapiens) (UniProt Q9H9A7)
UniProt Q9H9A7, sequence (Q9H9A7 whole entry, chain 1 of 2): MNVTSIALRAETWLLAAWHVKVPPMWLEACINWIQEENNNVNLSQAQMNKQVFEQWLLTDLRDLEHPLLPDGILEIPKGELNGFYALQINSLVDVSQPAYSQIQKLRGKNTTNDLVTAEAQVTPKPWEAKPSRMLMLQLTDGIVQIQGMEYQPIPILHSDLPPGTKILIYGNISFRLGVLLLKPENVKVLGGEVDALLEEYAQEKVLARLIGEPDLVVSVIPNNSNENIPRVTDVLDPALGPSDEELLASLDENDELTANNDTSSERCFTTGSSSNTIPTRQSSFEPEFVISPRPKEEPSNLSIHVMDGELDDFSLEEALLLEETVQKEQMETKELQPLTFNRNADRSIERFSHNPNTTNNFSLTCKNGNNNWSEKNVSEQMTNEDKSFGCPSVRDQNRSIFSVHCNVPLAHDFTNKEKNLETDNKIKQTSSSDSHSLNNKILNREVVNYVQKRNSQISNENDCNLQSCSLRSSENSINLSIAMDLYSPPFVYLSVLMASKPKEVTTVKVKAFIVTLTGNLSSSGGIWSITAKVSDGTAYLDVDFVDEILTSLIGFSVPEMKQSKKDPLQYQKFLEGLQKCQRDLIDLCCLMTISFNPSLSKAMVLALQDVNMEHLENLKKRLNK
UniProt Q9H9A7, sequence (Q96E14 2-147, chain 2 of 2, further chain): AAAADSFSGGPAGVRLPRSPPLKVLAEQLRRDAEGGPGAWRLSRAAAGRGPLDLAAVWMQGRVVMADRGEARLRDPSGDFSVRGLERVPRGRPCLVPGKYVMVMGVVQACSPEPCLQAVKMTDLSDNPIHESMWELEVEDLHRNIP

Question: With FANCM MM2 (from UniProt Q8IYD8) as the substance, how does the pKd read?
Answer: 8.30
